Results from US12458692B2, “Self-assembling peptide scaffold” (Hexamer Therapeutics, Inc., priority 2018, dated 2025).
Where no end group is shown, it is not given here.

Experiment: Blue native PAGE of the peptide hydrated in 1×PBS (self-assembly)
Assay type: physicochemical
Details: dissolved in 1×PBS, 5 min at room temperature, Blue NativePAGE Bis-Tris gel
Procedure: The peptide (SEQ ID NO: 15) was synthesized by SPPS and lyophilized for storage. The peptide was dissolved in 1×PBS and then loaded onto a blue native PAGE gel and size fractionated by electrophoresis through a 4-16% acrylamide gradient gel for 90 min at 150 V (constant). The gel was fixed in methanol:acetic acid:water and then rinsed in the same solution to destain. Lane 1 is BSA as a reference protein, and Lane 2 is the self-assembled hexamer. MW standards (which are not shown) are on the right. BSA is 66 kDa and the hexamer has an expected size of 20.7 kDa.
Experiments were performed to confirm that a hexamer forms following hydration of the monomer, elucidate the solubility of epitope coupled hexamers, determine the maximum density of epitope coupling, and confirm that a hexameric structure is maintained following coupling of the epitope. A representative peptide, SEQ ID NO: 15, was synthesized using the protocols previously described. A methionine and aspartic acid residue were placed on the N-terminus, and the methionine residue was protected by acetylation to form Acetyl-MD-(SEQ ID NO: 15). Following SPPS, the peptide was lyophilized for storage. To show self-assembly, the peptide was dissolved in 1×PBS buffer, incubated at room temperature for 5 min, and loaded onto a Blue NativePAGE Novex Bis-Tris Gel using the system purchased from Life Technologies. […]

## LRSIGKDLRSIGRDLRSIGKDLRSIGRD (Ac-MDLRSIGKDLRSIGRDLRSIGKDLRSIGRD; also: hexamer) [Acetyl-MD-(SEQ ID NO: 15), Representative self-assembling peptide made by SPPS; forms the hexamer on hydration]
  higher order structures or aggregates: no detectable higher order structures or aggregates
Expected hexamer size 20.7 kDa
  oligomeric state after hydration (self-assembly): self-assembly of the hexamer
